Results reported in patent publication JP2014195458A (dated 2014).

Columns and labels:
[1] = molecular target: T1, recombinant human interleukin-6 (human, UniProt P05231 30-212); assay: Luminex-based assay of IL-6 binding to IL-6 receptor
T1 construct: Recombinant human IL-6 came from several suppliers; also called IL-6; rhIL-6

[2] = molecular target: T1, recombinant human interleukin-6; assay: solid-phase ELISA on coated rIL-6 and solid-phase RIA with 125I-rIL-6, hybridoma supernatant
[3] = molecular target: T1, recombinant human interleukin-6; assay: cell-based or functional assay

T1 sequence (P05231 30-212 limits assumed): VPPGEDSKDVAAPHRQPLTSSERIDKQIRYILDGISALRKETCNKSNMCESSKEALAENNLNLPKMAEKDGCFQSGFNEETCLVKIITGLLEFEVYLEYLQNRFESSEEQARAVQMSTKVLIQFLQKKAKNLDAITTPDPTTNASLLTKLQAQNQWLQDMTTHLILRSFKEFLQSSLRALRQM

B1: mouse anti-IL-6 monoclonal antibody CLB-8 (antibody, V domains shown)
VH: EVQLVESGGKLLKPGGSLKLSCAASGFTFSSFAMSWFRQSPEKRLEWVAEISSGGSYTYYPDTVTGRFTISRDNAKNTLYLEMSSLRSEDTAMYYCARGLWGYYALDYWGQGTSVTVSS
VL: QIVLIQSPAIMSASPGEKVTMTCSASSSVSYMYWYQQKPGSSPRLLIYDTSNLASGVPVRFSGSGSGTSYSLTISRMEAEDAATYYCQQWSGYPYTFGGGTKLEIK
notes: also called CLB-IL6-8; CLB.IL-6/8
percent inhibition of IL-6 binding to IL-6 receptor [1]: 100%
binding result [2]: binds
IL−6依存性7TD1細胞増殖バイオアッセイ [3]: 100%
IL−6誘発性細胞増殖の阻害 (7TD1 cells, ATP luminescence), EC 50 [3]: 7.2 ng/mL
